The text below walks through data of article PMC5066845.

Test [1] has as its target F-actin polymerised on a streptavidin biosensor from biotinylated and non-biotinylated G-actin (1:4) (rabbit | human) (UniProt P68135). Briefly: BLI. Background: BLI is a label-free optical method that tracks binding on a fibre tip over time.
Test [2] deals with mouse DNGR-1 extracellular domain (ECD), wild type (mouse). Briefly: BLI.

As a reminder, the Kd is the equilibrium constant for the complex coming apart. Lower therefore signals higher affinity. As to “mouse DNGR-1 ECD K251A (domain or fragment)”, the Kd in test [1] is over 50000 nM.

Take “mouse DNGR-1 ECD N140A Y150A (domain or fragment)”: the dissociation constant Kd in test [1] was found to be 2700 nM.

Usually koff stands for a measure of how fast the partners let go of each other. Read a high koff as fast dissociation. In general, kon refers to the rate constant with which the complex forms. A low value points to slow association. Turning to “short F-actin filaments capped and stabilized with gelsolin (from UniProt P60709;P06396) (complex)”, in test [2], the equilibrium dissociation constant (Kd) was 8.7 nM, the dissociation rate constant (koff) is 6.4e-05 s⁻¹ and the kon turned out to be 7600 M⁻¹ s⁻¹.

In test [1], “mouse DNGR-1 extracellular domain (ECD), wild type (domain or fragment)” returned a Kd of 1600 nM, a dissociation rate constant (koff) of 0.848 s⁻¹ and an on-rate (kon) of 1.5e+06 M⁻¹ s⁻¹.

In test [1], “mouse DNGR-1 ECD W155A W250A (domain or fragment)” gave an equilibrium dissociation constant (Kd) of over 100000 nM.
